In the assay the target is PCSK9抗原 (前蛋白转化酶枯草溶菌素9, Proprotein convertase subtilisin/kexin type 9). The assay can be described thus: SPR, Biacore T200, PCSK9 coupled to CM5 chip (~790 RU), VHH as analyte 218-13.5 nM.

B1: PCSK9单域抗体VHHH12 (VHH)
VHH: QVQLQESGGGLVQAGGSLRLSCAASGRTFSDYAVGWFRQAPGKEREFVAGIGWSGGQTTYADSVKGRFTISRDNAKDTVYLQMNSLKPEDTAVYVCAASFLVIPGTVKTRYDSWGQGTQVTVPA
notes: Alpaca VHH expressed from pMECS in E. coli HB2151 and purified on a Ni column; also called 抗PCSK9单域抗体VHHH12; PCSK9单域抗体蛋白VHHH12; not shown: C-terminal tags from the pMECS vector (HA tag, detected with anti-HA antibody)
B1: the affinity, expressed as Kd, was 2.63 nM; the koff amounted to 0.000584 s⁻¹; the association rate constant (kon) turned out to be 222000 M⁻¹ s⁻¹.

Values taken from patent CN116333149A (UNIV HENAN URBAN CONSTRUCTION, dated 2023).
